# Measured values as given in patent US20210246166A1 (Bayer, published 2021).
# Numbered stars: 1 amine (or outer) side, 2 acyl side, 3 side chain; on linkers, the order of the positions; unused ones are H or OH. Bridge positions count the residues as written; N and C are the ends. Square brackets hold non-standard residues; d marks the D form. Ends that are not written are not given here. * marks the point of attachment. (S)‑4‑Piperazine‑2‑carboxylic acid = (S)-4-piperazine-2-carboxylic acid; 4‑Aminomethylphenylacetic acid = O=C(Cc1ccc(CN[*:1])cc1)[*:2]; NHCH2(1,3-C6H4)CH2CO = O=C(Cc1cccc(CN[*:1])c1)[*:2]; Phe(3-COOH) = N[C@@H](Cc1cccc(C(=O)O)c1)C(=O)O; Piperidin‑4‑ylacetic acid = O=C(CC1CCNCC1)*; Oic = O=C(O)[C@@H]1C[C@@H]2CCCC[C@@H]2N1; PEG6 = NCCOCCOCCOCCOCCOCCOCCC(=O)O; tBuAla = CC(C)(C)C[C@H](N)C(=O)O; PEG4 = NCCOCCOCCOCCOCCC(=O)O; Pen = CC(C)(S)[C@H](N)C(=O)O; NMeC = CN[C@@H](CS)C(=O)O; PEG3 = NCCOCCOCCOCCC(=O)O; Orn = NCCC[C@H](N)C(=O)O; Sar = CNCC(=O)O
# T1: Recombinant human MASP1 enzyme (fragment corresponding to amino acids 297-699, C-terminal His Tag) (human, UniProt P48740 297-699)
# T1 sequence: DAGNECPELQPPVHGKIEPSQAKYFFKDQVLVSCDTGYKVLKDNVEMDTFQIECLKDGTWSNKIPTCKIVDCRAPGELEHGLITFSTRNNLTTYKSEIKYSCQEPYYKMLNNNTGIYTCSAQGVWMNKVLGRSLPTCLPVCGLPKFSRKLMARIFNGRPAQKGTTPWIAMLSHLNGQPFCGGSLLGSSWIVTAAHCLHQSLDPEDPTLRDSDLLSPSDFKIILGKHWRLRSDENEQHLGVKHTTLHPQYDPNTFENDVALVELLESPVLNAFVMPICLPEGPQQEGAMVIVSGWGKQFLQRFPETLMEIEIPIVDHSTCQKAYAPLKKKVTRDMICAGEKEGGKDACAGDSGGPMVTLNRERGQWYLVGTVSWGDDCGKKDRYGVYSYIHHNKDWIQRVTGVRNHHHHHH
# B1: ((N-Me)G)-IC+SRSLP-(Oic)-I-(Pen)+IP-(4-Aminomethylphenylacetic acid)-OH (peptide)
# peptide: [Sar]ICSRSLP[Oic]I[Pen]IP[4‑Aminomethylphenylacetic acid]-OH
# modifications: disulfide 3-11; N-terminus assumed
# SMILES: CC[C@H](C)[C@H](NC(=O)CNC)C(=O)N[C@H]1CSSC(C)(C)[C@@H](C(=O)N[C@H](C(=O)N2CCC[C@H]2C(=O)NCc2ccc(CC(=O)O)cc2)[C@@H](C)CC)NC(=O)[C@H]([C@@H](C)CC)NC(=O)[C@@H]2C[C@@H]3CCCC[C@@H]3N2C(=O)[C@@H]2CCCN2C(=O)[C@H](CC(C)C)NC(=O)[C@H](CO)NC(=O)[C@H](CCCNC(=N)N)NC(=O)[C@H](CO)NC1=O
# B2: ((N-Me)G)-IC+SRS-((tBu)A)-PPI-(Pen)+IP-(Orn)-D-OH (peptide)
# peptide: [Sar]ICSRS[tBuAla]PPI[Pen]IP[Orn]D-OH
# modifications: disulfide 3-11; N-terminus assumed
# SMILES: CC[C@H](C)[C@H](NC(=O)CNC)C(=O)N[C@H]1CSSC(C)(C)[C@@H](C(=O)N[C@H](C(=O)N2CCC[C@H]2C(=O)N[C@@H](CCCN)C(=O)N[C@@H](CC(=O)O)C(=O)O)[C@@H](C)CC)NC(=O)[C@H]([C@@H](C)CC)NC(=O)[C@@H]2CCCN2C(=O)[C@@H]2CCCN2C(=O)[C@H](CC(C)(C)C)NC(=O)[C@H](CO)NC(=O)[C@H](CCCNC(=N)N)NC(=O)[C@H](CO)NC1=O
# B3: ((N-Me)G)-IC+SRSLP-(Oic)-I-(Pen)+IP-(3-Aminomethylphenylacetic acid)-OH (peptide)
# peptide: [Sar]ICSRSLP[Oic]I[Pen]IP[NHCH2(1,3-C6H4)CH2CO]-OH
# modifications: disulfide 3-11; N-terminus assumed
# SMILES: CC[C@H](C)[C@H](NC(=O)CNC)C(=O)N[C@H]1CSSC(C)(C)[C@@H](C(=O)N[C@H](C(=O)N2CCC[C@H]2C(=O)NCc2cccc(CC(=O)O)c2)[C@@H](C)CC)NC(=O)[C@H]([C@@H](C)CC)NC(=O)[C@@H]2C[C@@H]3CCCC[C@@H]3N2C(=O)[C@@H]2CCCN2C(=O)[C@H](CC(C)C)NC(=O)[C@H](CO)NC(=O)[C@H](CCCNC(=N)N)NC(=O)[C@H](CO)NC1=O
# B4: (Piperidin-4-ylacetic acid)-IC+SRS-((tBu)A)-PPIC+IPD-OH (peptide)
# peptide: {Piperidin‑4‑ylacetic acid}-ICSRS[tBuAla]PPICIPD-OH
# modifications: disulfide 2-10
# SMILES: CC[C@H](C)[C@H](NC(=O)CC1CCNCC1)C(=O)N[C@H]1CSSC[C@@H](C(=O)N[C@H](C(=O)N2CCC[C@H]2C(=O)N[C@@H](CC(=O)O)C(=O)O)[C@@H](C)CC)NC(=O)[C@H]([C@@H](C)CC)NC(=O)[C@@H]2CCCN2C(=O)[C@@H]2CCCN2C(=O)[C@H](CC(C)(C)C)NC(=O)[C@H](CO)NC(=O)[C@H](CCCNC(=N)N)NC(=O)[C@H](CO)NC1=O
# B5: (beta-P)-IC+SRS-((tBu)A)-PPI-(Pen)+IPD-OH (peptide)
# peptide: PICSRS[tBuAla]PPI[Pen]IPD-OH
# modifications: disulfide 3-11; N-terminus assumed
# SMILES: CC[C@H](C)[C@H](NC(=O)[C@@H]1CCCN1)C(=O)N[C@H]1CSSC(C)(C)[C@@H](C(=O)N[C@H](C(=O)N2CCC[C@H]2C(=O)N[C@@H](CC(=O)O)C(=O)O)[C@@H](C)CC)NC(=O)[C@H]([C@@H](C)CC)NC(=O)[C@@H]2CCCN2C(=O)[C@@H]2CCCN2C(=O)[C@H](CC(C)(C)C)NC(=O)[C@H](CO)NC(=O)[C@H](CCCNC(=N)N)NC(=O)[C@H](CO)NC1=O
# B6: ((N-Me)G)-IC+SRSLP-(Oic)-I-(Pen)+IPD-(PEG2(13 atoms))-OH (peptide)
# peptide: [Sar]ICSRSLP[Oic]I[Pen]IPD[PEG3]-OH
# modifications: disulfide 3-11; N-terminus assumed
# SMILES: CC[C@H](C)[C@H](NC(=O)CNC)C(=O)N[C@H]1CSSC(C)(C)[C@@H](C(=O)N[C@H](C(=O)N2CCC[C@H]2C(=O)N[C@@H](CC(=O)O)C(=O)NCCOCCOCCOCCC(=O)O)[C@@H](C)CC)NC(=O)[C@H]([C@@H](C)CC)NC(=O)[C@@H]2C[C@@H]3CCCC[C@@H]3N2C(=O)[C@@H]2CCCN2C(=O)[C@H](CC(C)C)NC(=O)[C@H](CO)NC(=O)[C@H](CCCNC(=N)N)NC(=O)[C@H](CO)NC1=O
# B7: (Orn)-IC+SRS-((tBu)A)-PPI-((N-Me)C)+IPD-OH (peptide)
# peptide: [Orn]ICSRS[tBuAla]PPI[NMeC]IPD-OH
# modifications: disulfide 3-11; N-terminus assumed
# SMILES: CC[C@H](C)[C@H](NC(=O)[C@@H](N)CCCN)C(=O)N[C@H]1CSSC[C@@H](C(=O)N[C@H](C(=O)N2CCC[C@H]2C(=O)N[C@@H](CC(=O)O)C(=O)O)[C@@H](C)CC)N(C)C(=O)[C@H]([C@@H](C)CC)NC(=O)[C@@H]2CCCN2C(=O)[C@@H]2CCCN2C(=O)[C@H](CC(C)(C)C)NC(=O)[C@H](CO)NC(=O)[C@H](CCCNC(=N)N)NC(=O)[C@H](CO)NC1=O
# B8: aIC+SRSLP-(Oic)-I-(Pen)-+IP-(3-Aminomethylphenylacetic acid)-OH (peptide)
# peptide: [dA]ICSRSLP[Oic]I[Pen]IP[NHCH2(1,3-C6H4)CH2CO]-OH
# modifications: disulfide 3-11; N-terminus assumed
# SMILES: CC[C@H](C)[C@H](NC(=O)[C@@H](C)N)C(=O)N[C@H]1CSSC(C)(C)[C@@H](C(=O)N[C@H](C(=O)N2CCC[C@H]2C(=O)NCc2cccc(CC(=O)O)c2)[C@@H](C)CC)NC(=O)[C@H]([C@@H](C)CC)NC(=O)[C@@H]2C[C@@H]3CCCC[C@@H]3N2C(=O)[C@@H]2CCCN2C(=O)[C@H](CC(C)C)NC(=O)[C@H](CO)NC(=O)[C@H](CCCNC(=N)N)NC(=O)[C@H](CO)NC1=O
# B9: ((N-Me)G)-IC+SRS-((tBu)A)-PPI-(Pen)+IP-((3-Carboxy)F)-OH (peptide)
# peptide: [Sar]ICSRS[tBuAla]PPI[Pen]IP[Phe(3-COOH)]-OH
# modifications: disulfide 3-11; N-terminus assumed
# SMILES: CC[C@H](C)[C@H](NC(=O)CNC)C(=O)N[C@H]1CSSC(C)(C)[C@@H](C(=O)N[C@H](C(=O)N2CCC[C@H]2C(=O)N[C@@H](Cc2cccc(C(=O)O)c2)C(=O)O)[C@@H](C)CC)NC(=O)[C@H]([C@@H](C)CC)NC(=O)[C@@H]2CCCN2C(=O)[C@@H]2CCCN2C(=O)[C@H](CC(C)(C)C)NC(=O)[C@H](CO)NC(=O)[C@H](CCCNC(=N)N)NC(=O)[C@H](CO)NC1=O
# B10: ((N-Me)G)-IC+SRS-((tBu)A)-PPI-(Pen)+IP-(PEG3(16atoms))-OH (peptide)
# peptide: [Sar]ICSRS[tBuAla]PPI[Pen]IP[PEG4]-OH
# modifications: disulfide 3-11; N-terminus assumed
# SMILES: CC[C@H](C)[C@H](NC(=O)CNC)C(=O)N[C@H]1CSSC(C)(C)[C@@H](C(=O)N[C@H](C(=O)N2CCC[C@H]2C(=O)NCCOCCOCCOCCOCCC(=O)O)[C@@H](C)CC)NC(=O)[C@H]([C@@H](C)CC)NC(=O)[C@@H]2CCCN2C(=O)[C@@H]2CCCN2C(=O)[C@H](CC(C)(C)C)NC(=O)[C@H](CO)NC(=O)[C@H](CCCNC(=N)N)NC(=O)[C@H](CO)NC1=O
# B11: ((N-Me)G)-IC+SRSLP-(Oic)-I-(Pen)+IP-((3-Carboxy)F)-OH (peptide)
# peptide: [Sar]ICSRSLP[Oic]I[Pen]IP[Phe(3-COOH)]-OH
# modifications: disulfide 3-11; N-terminus assumed
# SMILES: CC[C@H](C)[C@H](NC(=O)CNC)C(=O)N[C@H]1CSSC(C)(C)[C@@H](C(=O)N[C@H](C(=O)N2CCC[C@H]2C(=O)N[C@@H](Cc2cccc(C(=O)O)c2)C(=O)O)[C@@H](C)CC)NC(=O)[C@H]([C@@H](C)CC)NC(=O)[C@@H]2C[C@@H]3CCCC[C@@H]3N2C(=O)[C@@H]2CCCN2C(=O)[C@H](CC(C)C)NC(=O)[C@H](CO)NC(=O)[C@H](CCCNC(=N)N)NC(=O)[C@H](CO)NC1=O
# B12: ((N-Me)G)-IC+SRSLP-(Oic)-I-(Pen)+IP-(PEG5(22 atoms))-OH (peptide)
# peptide: [Sar]ICSRSLP[Oic]I[Pen]IP[PEG6]-OH
# modifications: disulfide 3-11; N-terminus assumed
# SMILES: CC[C@H](C)[C@H](NC(=O)CNC)C(=O)N[C@H]1CSSC(C)(C)[C@@H](C(=O)N[C@H](C(=O)N2CCC[C@H]2C(=O)NCCOCCOCCOCCOCCOCCOCCC(=O)O)[C@@H](C)CC)NC(=O)[C@H]([C@@H](C)CC)NC(=O)[C@@H]2C[C@@H]3CCCC[C@@H]3N2C(=O)[C@@H]2CCCN2C(=O)[C@H](CC(C)C)NC(=O)[C@H](CO)NC(=O)[C@H](CCCNC(=N)N)NC(=O)[C@H](CO)NC1=O
# Legend:
# [1] = target: T1, Recombinant human MASP1 enzyme …; test: cell-based or functional assay
# [2] = target: Recombinant human MASP2 enzyme (fragment corresponding to amino acids 297-686, C-terminal His Tag) (human, UniProt O00187 297-686); test: cell-based or functional assay
# Chain of Recombinant human MASP2 enzyme (fragment corresponding to amino acids 297-686, C-terminal His Tag) (O00187 other isoform, or with tags, fused parts or gaps limits assumed): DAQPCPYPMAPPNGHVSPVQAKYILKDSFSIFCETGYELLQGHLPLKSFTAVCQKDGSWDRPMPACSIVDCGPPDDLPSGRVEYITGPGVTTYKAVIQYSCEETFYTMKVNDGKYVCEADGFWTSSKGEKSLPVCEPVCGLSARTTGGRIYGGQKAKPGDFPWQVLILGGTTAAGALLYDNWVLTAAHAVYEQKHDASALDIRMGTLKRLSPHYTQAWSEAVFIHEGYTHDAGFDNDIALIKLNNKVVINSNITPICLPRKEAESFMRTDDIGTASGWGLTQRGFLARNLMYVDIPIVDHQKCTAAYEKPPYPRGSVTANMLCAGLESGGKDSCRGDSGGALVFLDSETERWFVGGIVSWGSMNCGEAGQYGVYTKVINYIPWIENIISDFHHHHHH
Binder,human MASP1 IC50 [1],human MASP2 IC50 [2]
[Sar]ICSRSLP[Oic]I[Pen]IP[PEG4‑CH2CO2H (15 atoms)]-OH (disulfide 3-11) [((N-Me)G)-IC+SRSLP-(Oic)-I-(Pen)+IP-(PEG4-CH2CO2H (15 atoms))-OH],1.8 nM,58 nM
B1,3.8 nM,61 nM
B2,3.8 nM,32 nM
B3,9.6 nM,172 nM
B4,26 nM,18 nM
B5,3 nM,35 nM
B6,5.5 nM,120 nM
B7,5.85 nM,175 nM
B8,3.7 nM,37 nM
B9,2.8 nM,25 nM
B10,2.1 nM,35 nM
B11,5.4 nM,64 nM
[Sar]ICSRSLP[Oic]I[Pen]I[(S)‑4‑Piperazine‑2‑carboxylic acid]-OH (disulfide 3-11) [((N-Me))-GIC+SRSLP-(Oic)-I-(Pen)+I-((S)-4-Piperazine-2-carboxylic acid)-OH],2.4 nM,78 nM
B12,4 nM,51 nM
